B5: MBP-CHMP4B(7-110) (domain or fragment, UniProt Q9H444 7-110, looked up)
chain: LFGAGGGKAGKGGPTPQEAIQRLRDTEEMLSKKQEFLEKKIEQELTAAKKHGTKNKRAALQALKRKKRYEKQLAQIDGTLSTIEFQREALENANTNTEVLKNMG
B6: CC2D1A(346-455) (domain or fragment, human, UniProt Q6P1N0 346-455, looked up)
chain: RTLLEALEQRMERYQVAAAQAKSKGDQRKARMHERIVKQYQDAIRAHKAGRAVDVAELPVPPGFPPIQGLEATKPTQQSLVGVLETAMKLANQDEGPEDEEDEVPKKQNS

The assay “CC2D1A(346-455)” addresses B6. Put plainly: SPR.
In the assay “MBP-CHMP4B(7-110)” the target is B5. The experiment in a line: ITC.
The target of assay [1] is T1, CC2D1B(1-601) (UniProt Q5T0F9 1-601).
T1 sequence (looked up): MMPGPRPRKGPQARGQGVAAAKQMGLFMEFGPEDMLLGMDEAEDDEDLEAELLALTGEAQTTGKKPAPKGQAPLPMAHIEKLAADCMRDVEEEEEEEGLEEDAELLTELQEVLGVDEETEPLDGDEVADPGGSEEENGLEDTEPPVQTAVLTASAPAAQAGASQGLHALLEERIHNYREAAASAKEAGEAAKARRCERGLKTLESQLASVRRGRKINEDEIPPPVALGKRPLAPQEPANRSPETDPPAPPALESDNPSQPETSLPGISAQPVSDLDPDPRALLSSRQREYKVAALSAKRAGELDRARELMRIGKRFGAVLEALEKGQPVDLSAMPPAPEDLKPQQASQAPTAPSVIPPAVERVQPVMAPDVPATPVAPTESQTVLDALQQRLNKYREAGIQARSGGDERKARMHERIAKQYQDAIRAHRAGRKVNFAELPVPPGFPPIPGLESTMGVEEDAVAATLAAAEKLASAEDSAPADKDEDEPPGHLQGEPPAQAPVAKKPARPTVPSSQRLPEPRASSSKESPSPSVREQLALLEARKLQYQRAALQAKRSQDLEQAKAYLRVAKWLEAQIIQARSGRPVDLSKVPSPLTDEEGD
Put plainly: SEC-MALS.

Assay [2] concerns the target T1, CC2D1B(1-601). Put plainly: ITC.
Assay [3] has as its target T2, CHMP4B(23-97), MBP removed (UniProt Q9H444).
T2 sequence (Q9H444 23-97, species assumed, looked up): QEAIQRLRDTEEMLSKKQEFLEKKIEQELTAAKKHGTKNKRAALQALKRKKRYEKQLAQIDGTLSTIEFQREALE
The experiment in a line: SEC-MALS.

In another assay the target is T3, MBP-CHMP4B(23-97) (UniProt Q9H444 23-97).
T3 sequence (looked up): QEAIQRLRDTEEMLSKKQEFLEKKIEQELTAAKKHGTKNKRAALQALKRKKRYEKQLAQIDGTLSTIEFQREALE
Put plainly: ITC.

B1: MBP-CHMP4B(7-105) (domain or fragment, UniProt Q9H444 7-105, looked up)
chain: LFGAGGGKAGKGGPTPQEAIQRLRDTEEMLSKKQEFLEKKIEQELTAAKKHGTKNKRAALQALKRKKRYEKQLAQIDGTLSTIEFQREALENANTNTEV
For the molecule B1, in the assay with CC2D1A(346-455), the koff is 0.0079 s⁻¹ and the kon was 25000 M⁻¹ s⁻¹.

B2: MBP-CHMP4B(7-105)_(mut1) (domain or fragment, UniProt Q9H444 7-105, looked up)
chain: LFGAGGGKAGKGGPTPQEAIQALARTREMLSKKQEFLEKKIEQELTAAKKHGTKNKRAALQALKRKKRYEKQLAQIDGTLSTIEFQREALENANTNTEV
In the assay with CC2D1A(346-455), B2 returned a koff of 0.0017 s⁻¹ and a kon of 1200 M⁻¹ s⁻¹.

B3: CC2D1A(346-494) (domain or fragment, human, UniProt Q6P1N0 346-494, looked up)
chain: RTLLEALEQRMERYQVAAAQAKSKGDQRKARMHERIVKQYQDAIRAHKAGRAVDVAELPVPPGFPPIQGLEATKPTQQSLVGVLETAMKLANQDEGPEDEEDEVPKKQNSPVAPTAQPKAPPSRTPQSGSAPTAKAPPKATSTRAQQQL
With B3, in the assay with MBP-CHMP4B(7-110), the dH was -8160 kcal/mol and the “stoichiometry N” value came to 1.03.

B4: CHMP4B(7-110), MBP removed (domain or fragment, UniProt Q9H444 7-110, looked up)
chain: LFGAGGGKAGKGGPTPQEAIQRLRDTEEMLSKKQEFLEKKIEQELTAAKKHGTKNKRAALQALKRKKRYEKQLAQIDGTLSTIEFQREALENANTNTEVLKNMG
For the molecule B4, the “stoichiometry N” value with CC2D1B(1-601) [1] was determined as 1.

Consider B5, for which, in the assay with CC2D1B(1-601) [2], the dH is -13700 kcal/mol and the “stoichiometry N” value came out at 1.02.

In the case of B6, the stoichiometry N came to 1 in assay [3], 0.9 in the assay with MBP-CHMP4B(23-97) and 0.9 with MBP-CHMP4B(7-110). For the same molecule, the results for the dH with MBP-CHMP4B(23-97) and with MBP-CHMP4B(7-110) were -14600 kcal/mol and -8190 kcal/mol, respectively.

B7: CC2D1A(309-494) (domain or fragment, human, UniProt Q6P1N0 309-494, looked up)
chain: SCLPPPPDQLPPDPPSPPSQPPTPATAPSTTEVPPPPRTLLEALEQRMERYQVAAAQAKSKGDQRKARMHERIVKQYQDAIRAHKAGRAVDVAELPVPPGFPPIQGLEATKPTQQSLVGVLETAMKLANQDEGPEDEEDEVPKKQNSPVAPTAQPKAPPSRTPQSGSAPTAKAPPKATSTRAQQQL
For the molecule B7, in the assay with MBP-CHMP4B(7-110), the dH was -7380 kcal/mol and the “stoichiometry N” value is 0.84.

These data come from publication PMC3433253 (Journal of molecular biology, 2012).
